To fix the notation:
B1: M185V/Q235A: destabilized RLuc double mutant M185V/Q235A for use as a reporter gene (protein)
chain: MASKVYDPEQRKRMITGPQWWARCKQMNVLDSFINYYDSEKHAENAVIFLHGNAASSYLWRHVVPHIEPVARCIIPDLIGMGKSGKSGNGSYRLLDHYKYLTAWFELLNLPKKIIFVGHDWGACLAFHYSYEHQDKIKAIVHAESVVDVIESWDEWPDIEEDIALIKSEEGEKMVLENNFFVETVLPSKIMRKLEPEEFAAYLEPFKEKGEVRRPTLSWPREIPLVKGGKPDVVAIVRNYNAYLRASDDLPKMFIESDPGFFSNAIVEGAKKFPNTEFVKVKGLHFSQEDAPDEMGKYIKSFVERVLKNEQ
modifications: Chemically synthesized Renilla Luciferase
notes: destabilized RLuc double mutant M185V/Q235A for use as a reporter gene
B2: A54G/A55G/C124A: RLuc mutant A54G/A55G/C124A (protein)
chain: B1 chain with A54G, A55G, C124A, V185M, A235Q
B3: A54P/C124A: RLuc mutant A54P/C124A (protein)
chain: B1 chain with A54P, C124A, V185M, A235Q
B4: A54P/A55T/C124A: RLuc mutant A54P/A55T/C124A (protein)
chain: B1 chain with A54P, A55T, C124A, V185M, A235Q
B5: M185V: destabilized RLuc single mutant M185V (without C124A) (protein)
chain: B1 chain with A235Q
modifications: Chemically synthesized Renilla Luciferase
B6: C124A/F180A: RLuc mutant C124A/F180A (protein)
chain: B1 chain with C124A, F180A, V185M, A235Q
B7: E44G/C124A: RLuc mutant E44G/C124A (protein)
chain: B1 chain with E44G, C124A, V185M, A235Q
B8: C124A/F199M: RLuc mutant C124A/F199M (protein)
chain: B1 chain with C124A, V185M, F199M, A235Q
B9: C124A/E195S/P196D: RLuc mutant C124A/E195S/P196D (protein)
chain: B1 chain with C124A, V185M, E195S, P196D, A235Q
B10: C124A/M191L: RLuc mutant C124A/M191L (protein)
chain: B1 chain with C124A, V185M, M191L, A235Q
B11: F116L/C124A: RLuc mutant F116L/C124A (protein)
chain: B1 chain with F116L, C124A, V185M, A235Q
B12: C124A/F261L/F262L: RLuc mutant C124A/F261L/F262L (protein)
chain: B1 chain with C124A, V185M, A235Q, F261L, F262L
B13: F33R/I34M/C124A: RLuc mutant F33R/I34M/C124A (protein)
chain: B1 chain with F33R, I34M, C124A, V185M, A235Q

Residue numbers refer to the chain shown, from its start. Names may count otherwise.

One series is described as follows: Luciferase activity of purified RLuc mutants (light output integrated over 10 s, luminometer). Format: biochemical. The conditions noted are these: benzyl-coelenterazine; relative to native enzyme. From the text:
Luminometer Calibration: Light measurements were made using a Turner 20/20 and later a Turner 20/20n luminometer (Turner Designs, Sunnyvale, Calif.). The luminometers were calibrated to absolute units (photons/s) using the luminol light standard performed in dimethyl sulfoxide (DMSO). No corrections were applied for the spectral sensitivity of the luminometer, as the spectral peak of luminol chemiluminescence in DMSO (486 nm) is close to the spectral peak of Renilla Luciferase bioluminescence (482 nm).
Characterization of Renilla Luciferase Mutants: Luciferase activity was measured by adding 1 μl of sample (diluted as necessary in EB containing 1% HSA) to 100 μl room temperature 100 mM sodium phosphate buffer (pH 7), manually adding 1 μl of 0.5 μg/μl coelenterazine or analog, manually mixing, and reading for 10 s in a luminometer. The time between the addition of the luciferin and the start of measurement was approximately 4 s.
As to B1, the “Activity (relative to RLuc) bc” value came out at 2.7.

Take B2: the “Activity (relative to RLuc) bc” value turned out to be 0.10.

As for B3, the “Activity (relative to RLuc) bc” value was found to be 0.04.

Turning to B4, the “Activity (relative to RLuc) bc” value amounted to 0.15.

Regarding B5, the “Activity (relative to RLuc) bc” value is recorded as 2.6.

Turning to B6, the “Activity (relative to RLuc) bc” value turned out to be 0.01.

As to B7, the “Activity (relative to RLuc) bc” value is on record as 0.78.

Turning to B8, the “Activity (relative to RLuc) bc” value is given as 0.44.

For B9, the “Activity (relative to RLuc) bc” value was found to be 0.10.

For the molecule B10, the “Activity (relative to RLuc) bc” value was 0.99.

With B11, the “Activity (relative to RLuc) bc” value is on record as 1.0.

Turning to B12, the “Activity (relative to RLuc) bc” value was 0.00.

On to B13, for which the “Activity (relative to RLuc) bc” value was 0.15.

Staying with this series, now noted: bisdeoxycoelenterazine; relative to native enzyme.
Consider B1, for which the “Activity (relative to RLuc) bdc” value turned out to be 20.

In the case of B2, the “Activity (relative to RLuc) bdc” value is 0.19.

Take B3: the “Activity (relative to RLuc) bdc” value amounted to 0.06.

As for B4, the “Activity (relative to RLuc) bdc” value was 0.22.

In the case of B5, the “Activity (relative to RLuc) bdc” value was 20.

Regarding B6, the “Activity (relative to RLuc) bdc” value is on record as 0.01.

For the molecule B7, the “Activity (relative to RLuc) bdc” value is 0.98.

Turning to B8, the “Activity (relative to RLuc) bdc” value came out at 0.46.

Regarding B9, the “Activity (relative to RLuc) bdc” value worked out at 0.15.

For the molecule B10, the “Activity (relative to RLuc) bdc” value amounted to 1.2.

In the case of B11, the “Activity (relative to RLuc) bdc” value came out at 1.8.

As to B12, the “Activity (relative to RLuc) bdc” value was determined as 0.00.

Consider B13, for which the “Activity (relative to RLuc) bdc” value is on record as 0.20.

The series is the same for the next values; noted with them: coelenterazine-cp; relative to native enzyme.
Take B1: the “Activity (relative to RLuc) cp” value is listed as 14.

For the molecule B2, the “Activity (relative to RLuc) cp” value stood at 0.06.

With B3, the “Activity (relative to RLuc) cp” value is 0.05.

B4: the “Activity (relative to RLuc) cp” value worked out at 0.11.

Regarding B5, the “Activity (relative to RLuc) cp” value is on record as 12.

As to B6, the “Activity (relative to RLuc) cp” value is 0.03.

In the case of B7, the “Activity (relative to RLuc) cp” value is 0.74.

With B8, the “Activity (relative to RLuc) cp” value is given as 0.53.

As to B9, the “Activity (relative to RLuc) cp” value worked out at 0.12.

For the molecule B10, the “Activity (relative to RLuc) cp” value stood at 0.97.

For the molecule B11, the “Activity (relative to RLuc) cp” value is reported as 1.3.

For B12, the “Activity (relative to RLuc) cp” value is given as 0.00.

Take B13: the “Activity (relative to RLuc) cp” value is listed as 0.16.

The series is the same for the next values; noted with them: coelenterazine-n; relative to native enzyme.
As for B1, the “Activity (relative to RLuc) n” value worked out at 7.1.

Consider B2, for which the “Activity (relative to RLuc) n” value is reported as 0.15.

On to B3, for which the “Activity (relative to RLuc) n” value is listed as 0.08.

For the molecule B4, the “Activity (relative to RLuc) n” value is reported as 0.38.

Consider B5, for which the “Activity (relative to RLuc) n” value is listed as 4.1.

Consider B6, for which the “Activity (relative to RLuc) n” value amounted to 0.01.

As for B7, the “Activity (relative to RLuc) n” value is given as 0.66.

On to B8, for which the “Activity (relative to RLuc) n” value was 0.49.

Regarding B9, the “Activity (relative to RLuc) n” value was found to be 0.10.

For B10, the “Activity (relative to RLuc) n” value was determined as 1.0.

In the case of B11, the “Activity (relative to RLuc) n” value turned out to be 0.88.

B12: the “Activity (relative to RLuc) n” value came out at 0.00.

Consider B13, for which the “Activity (relative to RLuc) n” value was 0.12.

Staying with this series, now noted: native coelenterazine.
As for B1, the “improvement in light output (activity) compared to native RLuc” value was 5 fold.

As for B5, the “improvement in light output (activity) compared to native RLuc” value is “about 4 fold”.

Staying with this series, now noted: native coelenterazine; relative to native enzyme.
Consider B1, for which the “Activity (relative to RLuc) native” value amounted to 4.8.

Take B2: the “Activity (relative to RLuc) native” value is 0.12.

As to B3, the “Activity (relative to RLuc) native” value is 0.05.

Consider B4, for which the “Activity (relative to RLuc) native” value is recorded as 0.21.

B5: the “Activity (relative to RLuc) native” value is listed as 4.4.

For B6, the “Activity (relative to RLuc) native” value was 0.02.

As to B7, the “Activity (relative to RLuc) native” value turned out to be 0.94.

As for B8, the “Activity (relative to RLuc) native” value is 0.58.

In the case of B9, the “Activity (relative to RLuc) native” value is 0.12.

As to B10, the “Activity (relative to RLuc) native” value came to 1.1.

Consider B11, for which the “Activity (relative to RLuc) native” value is recorded as 1.3.

Regarding B12, the “Activity (relative to RLuc) native” value is 0.00.

Consider B13, for which the “Activity (relative to RLuc) native” value came out at 0.15.

A further series in a line: Serum stability in mouse serum at 37° C. The series is classed as in vitro ADME. The conditions noted are these: mouse serum, 37° C., mono-exponential fit. The procedure: (§1) Serum stability measurements were done by mixing 0.5 μl dilute Luciferase with either 20 μl mouse serum or 50 μl rat serum (Equitech-Bio, Kerrville, Tex.) placing the sample in a 37° C. incubator, and removing aliquots for activity testing. To calculate serum half-lives, mono-exponential decay curves were fit to the serum stability data using a Nelder/Mead Simplex non-linear least squares minimization algorithm provided by the Octave numerical programming language. Emission spectra at ambient temperature were measured using a Triax 320 (Horiba Jobin Yvon, Edison, N.J.), which incorporates an optical grating device with a liquid N2 cooled CCD detector.
In the case of B1, the “Serum τ1/2 (h) mouse” value came out at 0.5 h.

As for B2, the “Serum τ1/2 (h) mouse” value amounted to 2.4 h.

Regarding B3, the “Serum τ1/2 (h) mouse” value is listed as 14 h.

As to B4, the “Serum τ1/2 (h) mouse” value came to 119 h.

On to B5, for which the “Serum τ1/2 (h) mouse” value was found to be 0.8 h.

For B6, the “Serum τ1/2 (h) mouse” value turned out to be 1.6 h.

Turning to B7, the “Serum τ1/2 (h) mouse” value was determined as 2.6 h.

With B8, the “Serum τ1/2 (h) mouse” value stood at 6.7 h.

In the case of B9, the “Serum τ1/2 (h) mouse” value stood at 1.0 h.

For the molecule B10, the “Serum τ1/2 (h) mouse” value is 6.5 h.

For the molecule B11, the “Serum τ1/2 (h) mouse” value came to 11 h.

With B13, the “Serum τ1/2 (h) mouse” value came out at 0.3 h.

Still in this series, the particulars now being: murine serum.
For the molecule B1, the “stability (lability) compared to the native enzyme” value is “half the stability”.

The series is the same for the next values; noted with them: murine serum; listed as double mutant.
Consider B1, for which the “stability (lability) compared to the native enzyme” value was “twice the lability”.

The next series is described as follows: Serum stability in rat serum at 37° C. The series is classed as in vitro ADME. The conditions noted are these: mono-exponential fit. The procedure: as §1
Regarding B1, the “Serum τ1/2 (h) rat” value was found to be 0.2 h.

Turning to B2, the “Serum τ1/2 (h) rat” value is reported as 3.0 h.

Turning to B3, the “Serum τ1/2 (h) rat” value stood at 13 h.

For the molecule B4, the “Serum τ1/2 (h) rat” value came out at 129 h.

Regarding B5, the “Serum τ1/2 (h) rat” value is recorded as 0.3 h.

In the case of B6, the “Serum τ1/2 (h) rat” value is listed as 1.6 h.

With B7, the “Serum τ1/2 (h) rat” value is on record as 3.3 h.

On to B8, for which the “Serum τ1/2 (h) rat” value stood at 6.0 h.

As to B9, the “Serum τ1/2 (h) rat” value is 0.7 h.

With B10, the “Serum τ1/2 (h) rat” value was found to be 5.1 h.

On to B11, for which the “Serum τ1/2 (h) rat” value came to 9.4 h.

Regarding B13, the “Serum τ1/2 (h) rat” value came out at 0.3 h.

Another series is described as follows: Bioluminescence emission spectra. The series is classed as physicochemical. The conditions noted are these: emission spectrum with native coelenterazine. On the procedure: as §1
Take B2: the “Wavelength (nm) mean” value is recorded as 492 nm and the “Wavelength (nm) peak” value is listed as 476 nm.

Consider B3, for which the “Wavelength (nm) mean” value came out at 482 nm and the “Wavelength (nm) peak” value was 468 nm.

In the case of B4, the “Wavelength (nm) mean” value stood at 483 nm and the “Wavelength (nm) peak” value came to 470 nm.

With B6, the “Wavelength (nm) mean” value was 504 nm and the “Wavelength (nm) peak” value amounted to 488 nm.

As to B7, the “Wavelength (nm) mean” value is on record as 502 nm and the “Wavelength (nm) peak” value is recorded as 486 nm.

B8: the “Wavelength (nm) mean” value was found to be 495 nm and the “Wavelength (nm) peak” value was found to be 480 nm.

Consider B9, for which the “Wavelength (nm) mean” value was determined as 498 nm and the “Wavelength (nm) peak” value was 482 nm.

As for B10, the “Wavelength (nm) mean” value was 496 nm and the “Wavelength (nm) peak” value amounted to 480 nm.

As for B11, the “Wavelength (nm) mean” value is recorded as 502 nm and the “Wavelength (nm) peak” value was determined as 486 nm.

Regarding B13, the “Wavelength (nm) mean” value stood at 497 nm and the “Wavelength (nm) peak” value is 481 nm.

For the origin of these results see patent US7842469B2, “Bioluminescence resonance energy transfer (BRET) systems and methods of use thereof” (Stanford University, priority 2005, dated 2010).
